Patent US12172986B2, “Splicing modulator antibody-drug conjugates and methods of use” (EISAI R&D MANAGEMENT CO., LTD., priority 2018, dated 2024)

B1: AB205-ADL1-D14 (conjugate)
heavy: QVQLQQSGSELMMPGASVKISCKATGYTFSNYWIQRPGHGLEWIGEILPGTGRTIYNEKFKGKATFTADISSNTVQMQLSSLTSEDSAVYYCARRDYYGNFYYAMDYWGQGTSVTVSSAKTTPPSVYPLAPGSAAQTNSMVTLGCLVKGYFPEPVTVTWNSGSLSSGVHTFPAVLQSDLYTLSSSVTVPSSTWPSETVTCNVAHPASSTKVDKKIVPRDCGCKPCICTVPEVSSVFIFPPKPKDVLTITLTPKVTCVVVDISKDDPEVQFSWFVDDVEVHTAQTQPREEQFNSTFRSVSELPIMHQDWLNGKEFKCRVNSAAFPAPIEKTISKTKGRPKAPQVYTIPPPKEQMAKDKVSLTCMITDFFPEDITVEWQWNGQPAENYKNTQPIMDTDGSYFVYSKLNVQKSNWEAGNTFTCSVLHEGLHNHHTEKSLSHSPG
light: DIQMTQSTSSLSASLGDRVTISCSASQGINNYLNWYQQKPDGTVELLIYYTSTLQSGVPSRFSGSGSGTDYSLTISNLEPEDIGTYYCQQYSKLPRTFGGGTKLEIKRADAAPTVSIFPPSSEQLTSGGASVVCFLNNFYPKDINVKWKIDGSERQNGVLNSWTDQDSKDSTYSMSSTLTLTKDEYERHNSYTCEATHKTSTSPIVKSFNRNEC
B2: AB205-ADL5-D15 (conjugate)
heavy: B1 heavy
light: B1 light
B3: AB205-ADL10-D1 (conjugate)
heavy: B1 heavy
light: B1 light
B4: AB205-ADL5-D19 (conjugate)
heavy: B1 heavy
light: B1 light
B5: AB205-ADL5-D25 (conjugate)
heavy: B1 heavy
light: B1 light
B6: AB205-ADL1-D4 (conjugate)
heavy: B1 heavy
light: B1 light
B7: AB205-ADL1-D1 (conjugate)
heavy: B1 heavy
light: B1 light

tested on: MOLP8 cells; assay: Cell viability, CD138-expressing MOLP8; format: cell-based; conditions: anti-CD138 ADC
Method: HCC1954 (American Type Culture Collection (ATCC)) breast ductal carcinoma cells were plated at 2000 cells/well in flat bottom 96-well tissue culture plates (Corning) in a total volume of 90 μL tissue culture medium supplemented with 10% fetal bovine serum (ThermoFisher Scientific). Cells were treated with a 3-fold serial dilution of compound from 200 nM to 0.03 nM. Each concentration was tested in triplicate. At the time of treatment, a plate of untreated cells was evaluated using CellTiter-Glo®2.0 Luminescent Cell Viability Assay according to the manufacturer's recommendations (Promega; #G9241). CellTiter-Glo® 2.0 reagent was added to the medium, incubated, and assayed on an EnVision Multilabel Reader (PerkinElmer). Values represent time zero (TO). […] Percentage growth inhibition was calculated as: [(T144-T0)/(C-TO)]×100 for concentrations for which T144>/=TO or [(T144-T0)/T0]×100 for concentrations for which T144<TO. The dose response curve plots were generated using Prism 7 (Graphpad) and fit using nonlinear regression analysis and the log(inhibitor) versus response-variable slope (four parameters).

Molecule	LD50 (nM) (ADC)	Rmin (%) (ADC)
B1	>400 nM	−74.008%
B2	>400 nM	2.419%
B3	>400 nM	−25.099%
B4	>400 nM	−46.23%
B5	11.669 nM	−76.736%
B6	0.535 nM	−99.306%
B7	0.656 nM	−100.099%

same assay, conditions: anti-CD138 ADC, read-out: GI50 (nM) (ADC)

Molecule	GI50
B1	< 0.061 nM
B2	0.268 nM
B3	0.08 nM
B4	< 0.061 nM
B5	< 0.061 nM
B6	< 0.061 nM
B7	> 0.061 nM
